Data published in patent US20210269476A1.
Each block holds one binder with its values, some of them ahead of it.

Assays:
[1] = target: human IgG1 (coupled to the sensor chip) (human); test: SPR, Biacore X-100, single cycle kinetics, human IgG1 coupled to the chip, scFv as analyte
[2] = target: human serum-derived IgG polyclonal antibody (WAKO) (human); test: affinity column breakthrough curve; scFv (5.0 mg) immobilized on HiTrap NHS-activated HP 1 mL, polyclonal human IgG 1 mg/mL at 1 mL/min
[3] = target: human serum-derived IgG polyclonal antibody (WAKO) (human); test: affinity column breakthrough curve; scFv immobilized on HiTrap NHS-activated HP 1 mL, polyclonal human IgG 1 mg/mL at 1 mL/min

Kd [1]: 2.4 nM
koff [1]: 0.00017 s⁻¹
kon [1]: 70000 M⁻¹ s⁻¹
[10% DBC (mg/mL) at flow rate of 1.0 mL/min]/[amount of protein immobilized on column (mg)] [2]: 1.4 (mg/mL)/mg
B1: R3-26 repCK+K5 (scFv)
scFv: QEQLVESGGGLVTPGGTLTLTCTVSGIDLSSYAMSWVRQVPGEGLEWIGIIGSGGGTAYANWARGRFTISRTSSTTVDLRMTSLTTEDTATYFCATDYGIYGYAYGHLWGPGTLVTVTSGGGGSGGGGSGGGGSELVMTQTASPVSAAVGGTVTINCQASQSISTALAWYQQRPGQPPRLLIYDASTLASGVSSRFSGSGSGTEFTLTISDLESADAATYYCQTYFGSDTDNAFGEGTEVEITGSAAAGGGGSKKKKKIE

Kd [1]: 1.7 nM
koff [1]: 0.0001 s⁻¹
kon [1]: 61000 M⁻¹ s⁻¹
[10% DBC (mg/mL) at flow rate of 1.0 mL/min]/[amount of protein immobilized on column (mg)] [2]: 1.26 (mg/mL)/mg
B2: R3-26 repCK+K3 (scFv)
scFv: QEQLVESGGGLVTPGGTLTLTCTVSGIDLSSYAMSWVRQVPGEGLEWIGIIGSGGGTAYANWARGRFTISRTSSTTVDLRMTSLTTEDTATYFCATDYGIYGYAYGHLWGPGTLVTVTSGGGGSGGGGSGGGGSELVMTQTASPVSAAVGGTVTINCQASQSISTALAWYQQRPGQPPRLLIYDASTLASGVSSRFSGSGSGTEFTLTISDLESADAATYYCQTYFGSDTDNAFGEGTEVEITGSAAAGGGGSKKKIE

[10% DBC (mg/mL) at flow rate of 1.0 mL/min]/[amount of protein immobilized on column (mg)] [3]: 0.63 (mg/mL)/mg
Kd [1]: 1.6 nM
koff [1]: 9.1e-05 s⁻¹
kon [1]: 56000 M⁻¹ s⁻¹
B3: R3-26 repCK+K (scFv)
scFv: QEQLVESGGGLVTPGGTLTLTCTVSGIDLSSYAMSWVRQVPGEGLEWIGIIGSGGGTAYANWARGRFTISRTSSTTVDLRMTSLTTEDTATYFCATDYGIYGYAYGHLWGPGTLVTVTSGGGGSGGGGSGGGGSELVMTQTASPVSAAVGGTVTINCQASQSISTALAWYQQRPGQPPRLLIYDASTLASGVSSRFSGSGSGTEFTLTISDLESADAATYYCQTYFGSDTDNAFGEGTEVEITGSAAAGGGGSKIE
